We go through 3 molecules from patent publication US20150232570A1 (ONCOMED PHARMACEUTICALS, published 2015).

This test concerns the target T1, recombinant human NOTCH1 protein (human, UniProt P46531 1426-1731, limits assumed).
T1 construct: NOTCH1 proteins'
T1 sequence (looked up): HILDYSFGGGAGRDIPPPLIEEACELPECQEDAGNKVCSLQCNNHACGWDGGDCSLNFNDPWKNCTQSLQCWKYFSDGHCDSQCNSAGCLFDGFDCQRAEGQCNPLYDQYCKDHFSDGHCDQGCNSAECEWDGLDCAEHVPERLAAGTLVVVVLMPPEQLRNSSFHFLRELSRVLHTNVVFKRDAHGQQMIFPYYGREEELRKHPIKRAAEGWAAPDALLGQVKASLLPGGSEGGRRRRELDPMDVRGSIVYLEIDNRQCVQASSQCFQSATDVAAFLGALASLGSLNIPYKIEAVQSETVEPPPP
Description: SPR (Biacore 2000), NOTCH1 protein amine-coupled to chip, IgG injected. As to the method:
The affinities for human and mouse NOTCH11 were determined using a Biacore 2000 instrument. Briefly, recombinant human and mouse NOTCH1 proteins were immobilized on a CMS chip using standard amine based chemistry (NHS/EDC). Different antibody concentrations were injected over the protein surfaces and kinetic data were collected over time. The data was fit using the simultaneous global fit equation to yield dissociation constants (KD, nM) for each NOTCH1 protein (Table 2).
For orientation: SPR reads the build-up and loss of mass on a sensor chip optically.

B1: humanized antibody 52M51-H4L3 (antibody, human IgG2, lambda, V domains shown)
VH: QVQLVQSGAEVKKPGASVKISCKVSGYTLRGYWIEWVRQAPGKGLEWIGQILPGTGRTNYNEKFKGRVTMTADTSTDTAYMELSSLRSEDTAVYYCARFDGNYGYYAMDYWGQGTTVTVSS
VL: SQAVVTQEPSLTVSPGGTVTLTCRSSTGAVTTSNYANWFQQKPGQAPRTLIGGTNNRAPGVPARFSGSLLGGKAALTLSGAQPEDEAEYYCALWYSNHWVFGGGTKLTVLG
notes: Human IgG2 heavy chain and lambda (IgLC1) light chain; also called OMP-52M51; ATCC PTA-9549
As a reminder, the Kd is the equilibrium constant for the complex coming apart. As for B1, the Kd was found to be 4.33 nM.

B2: humanized antibody 52M51-H4L4 (antibody, human IgG2, lambda, V domains shown)
VH: QVQLVQSGAEVKKPGASVKISCKVSGYTLRGYWIEWVRQAPGKGLEWIGQILPGTGRTNYNEKFKGRVTMTADTSTDTAYMELSSLRSEDTAVYYCARFDGNYGYYAMDYWGQGTTVTVSS
VL: SQTVVTQEPSFSVSPGGTVTLTCRSSTGAVTTSNYANWYQQTPGQAPRTLIGGTNNRAPGVPDRFSGSILGNKAALTITGAQADDESDYYCALWYSNHWVFGGGTKLTVLG
notes: Human IgG2 heavy chain and lambda (IgLC1) light chain
Turning to B2, the dissociation constant (Kd) came out at 7.35 nM.

B3: murine monoclonal antibody 52M51 (antibody, mouse IgG1, V domains shown)
VH: QVQLQQSGAELMKPGASVKISCKAAGYTMRGYWIEWIKQRPGHGLEWIGQILPGTGRTNYNEKFKGKATFTADTSSNTANMQLSSLTSEDSAVYYCARFDGNYGYYAMDYWGQGSSVTVSS
VL: QAVVTQESALTTSPGETVTLTCRSSTGAVTTSNYANWVQEKPDHLFTGLIGGTNNRAPGVPARFSGSLIGDKAALTITGAQTEDEAIYFCALWYSNHWVFGGGTKLTVLG
notes: Mouse antibody purified from hybridoma supernatant; also called 52M51 anti-NOTCH1 antibody; ATCC PTA-9405
Regarding B3, the dissociation constant Kd is 2.86 nM.
